Assay results from patent US20120027679A1 (CANON, published 2012).
Where no end group is shown, it is not given here. Side-chain parts run from the residue outwards. maleimide = maleimide group (reactive functional group for coupling a ligand); EO 2 kDa = ethylene oxide linker of molecular weight 2000

Key:
[1] = target: T1, Recombinant Human ErbB2/Fc Chimera (R&D Systems, Inc.) (human, UniProt P04626 23-652); assay: SPR (Biacore X), ErbB2/Fc on CM-5 chip, Scatchard plot of Req, apparent Kd of the particle
T1 construct: Bought; Amine-coupled to a CM-5 chip, about 1000 to 2000 RU; also called HER2; antigen; Fc part of the bought chimera not given

[2] = target: T2, HER2 (epidermal growth factor receptor 2) on N87 cells (UniProt P04626 23-1255, limits assumed); assay: saturation binding to N87 cells (cell-bound iron measured), Scatchard plot, apparent Kd
T2 construct: whole, on cells; N87 cells are used as HER2-positive cells; also called HER2-positive cells (N87); HER2-expressing cells
Description: (§1) Each particle was evaluated for its binding capability to HER2-expressing cells. On the day before evaluation, HER2-positive cells (N87 cells) were seeded over a 24-well plate (5×10⁵ cells/well). Next day, after medium removal, 200 μL of a growth medium was placed therein, and the particle sample was then added to each well. The plate was left standing in a CO₂ incubator at 37° C. for 4 hours. Then, the medium containing the particle was removed. The wells were fully washed twice with 1 mL of PBS. After removal of PBS, 1% Triton-X100/PBS solution was added at a concentration of 150 μL/well for cell lysis. The cells were incubated at room temperature for 2 hours or longer. Subsequently, concentrated hydrochloric acid (12 N) was added at a concentration of 150 μL/well, and the cells were incubated at room temperature for 2 hours or longer. The amount of iron in this acid lysate of the sample (6 N HCl solution, 300 μL) was measured to determine the concentration of the particle bound to the cell. A Scatchard plot was prepared from the saturation binding curve of the particle for N87, and an apparent equilibrium dissociation constant (Kd) of the particle for the cell was determined.

[3] = target: T2, HER2 (epidermal growth factor receptor …); assay: saturation binding to N87 cells, Scatchard plot, apparent Kd; HBP1 particle
Description: as §1, with “Subsequently, concentrated hydrochloric acid (12 N) was added at a concentration of 150 μL/well, and the cells were incubated at room temperature for 2 hours or longer.” left out
(§2) According to Example 8, a Scatchard plot was prepared from the saturation binding curve of each particle for N87 cells, and an apparent equilibrium dissociation constant (Kd) of the particle for the cell was determined.

[4] = target: T2, HER2 (epidermal growth factor receptor …); assay: saturation binding to N87 cells, Scatchard plot, apparent Kd; HBP2 particle
Description: as §1, with “Subsequently, concentrated hydrochloric acid (12 N) was added at a concentration of 150 μL/well, and the cells were incubated at room temperature for 2 hours or longer.” left out
as §2

[5] = target: T2, HER2 (epidermal growth factor receptor …); assay: saturation binding to N87 cells, Scatchard plot, apparent Kd; HBP3 particle
Description: as §1, with “Subsequently, concentrated hydrochloric acid (12 N) was added at a concentration of 150 μL/well, and the cells were incubated at room temperature for 2 hours or longer.” left out
as §2

[6] = target: T2, HER2 (epidermal growth factor receptor …); assay: saturation binding to N87 cells, Scatchard plot, apparent Kd
Description: as §1, §2

MARSGLGGKGSC([maleimide-PEG 300-iron oxide nanoparticle 20 nm]) (not fully specified) [HBP-EO-NP-20: HER2-binding peptide-immobilized 20-nm particle containing an iron oxide particle] was tested, and the Kd [1] was 36.7 nM and the Kd [2] was 78 nM.

Work on MARSGLGGKGSC([maleimide-PEG 300-iron oxide nanoparticle 200 nm]) (not fully specified) [HBP1-EO-NP-200: HER2-binding peptide-immobilized 200-nm particle containing an iron oxide particle] yielded a Kd [3] of 0.67 nM.

With MARSGLGGKGSC([maleimide-PEG 300-iron oxide nanoparticle 200 nm]) (not fully specified) [HBP2-EO-NP-200: HER2-binding peptide-immobilized 200-nm particle containing an iron oxide particle] the Kd [4] was 0.43 nM.

MARSGLGGKGSC([maleimide-PEG 300-iron oxide nanoparticle 200 nm]) (not fully specified) [HBP3-EO-NP-200: HER2-binding peptide-immobilized 200-nm particle containing an iron oxide particle] gave a Kd [5] of 0.49 nM.

MARSGLGGKGSC([maleimide-EO 2 kDa-iron oxide nanoparticle 200 nm]) (not fully specified) [HBP1-EO2k-NP-200: HER2-binding peptide-immobilized 200-nm particle with ethylene oxide linker of molecular weight 2000, listing 1 of 4 here] gave a Kd [6] of 0.07 nM.

Work on MARSGLGGKGSC([maleimide-EO 2 kDa-iron oxide nanoparticle 200 nm]) (not fully specified) [HBP2-EO2k-NP-200: HER2-binding peptide-immobilized 200-nm particle with ethylene oxide linker of molecular weight 2000, listing 2 of 4 here] yielded a Kd [6] of 0.09 nM.

For MARSGLGGKGSC([maleimide-EO 2 kDa-iron oxide nanoparticle 200 nm]) (not fully specified) [HBP3-EO2k-NP-200: HER2-binding peptide-immobilized 200-nm particle with ethylene oxide linker of molecular weight 2000, listing 3 of 4 here], the Kd [6] was 0.08 nM.

Work on MARSGLGGKGSC([maleimide-EO 2 kDa-iron oxide nanoparticle 200 nm]) (not fully specified) [HBP4-EO2k-NP-200: HER2-binding peptide-immobilized 200-nm particle with ethylene oxide linker of molecular weight 2000, listing 4 of 4 here] yielded a Kd [6] of 0.11 nM.
